In test [1] the target is LSR beta subunit (56 kDa) (rat) (UniProt Q9WU74). The experiment in a line: ultracentrifugation assay, in vitro translated labeled subunit with LDL, with against without oleate.
Test [2] concerns the target LSR alpha subunit (68 kDa) (rat) (UniProt Q9WU74). The description is as above.

Chain of LSR alpha subunit (68 kDa) (rat) (Q9WU74 whole entry): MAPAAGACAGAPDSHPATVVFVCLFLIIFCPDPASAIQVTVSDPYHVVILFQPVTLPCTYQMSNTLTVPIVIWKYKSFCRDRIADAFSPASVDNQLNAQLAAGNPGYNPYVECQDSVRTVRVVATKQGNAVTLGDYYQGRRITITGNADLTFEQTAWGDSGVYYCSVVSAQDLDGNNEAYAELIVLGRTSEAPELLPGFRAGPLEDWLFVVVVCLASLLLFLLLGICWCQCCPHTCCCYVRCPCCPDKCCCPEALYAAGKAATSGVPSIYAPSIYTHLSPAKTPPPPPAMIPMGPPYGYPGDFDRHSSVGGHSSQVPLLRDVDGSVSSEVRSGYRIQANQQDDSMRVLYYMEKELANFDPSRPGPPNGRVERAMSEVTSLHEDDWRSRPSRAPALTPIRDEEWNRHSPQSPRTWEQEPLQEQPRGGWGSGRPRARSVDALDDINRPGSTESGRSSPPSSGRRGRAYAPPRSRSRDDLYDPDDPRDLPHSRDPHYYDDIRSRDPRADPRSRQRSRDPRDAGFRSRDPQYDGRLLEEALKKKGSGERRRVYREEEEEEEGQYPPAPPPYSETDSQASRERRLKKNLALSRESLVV
Chain of LSR beta subunit (56 kDa) (rat) (Q9WU74 other isoform, or with tags, fused parts or gaps limits assumed): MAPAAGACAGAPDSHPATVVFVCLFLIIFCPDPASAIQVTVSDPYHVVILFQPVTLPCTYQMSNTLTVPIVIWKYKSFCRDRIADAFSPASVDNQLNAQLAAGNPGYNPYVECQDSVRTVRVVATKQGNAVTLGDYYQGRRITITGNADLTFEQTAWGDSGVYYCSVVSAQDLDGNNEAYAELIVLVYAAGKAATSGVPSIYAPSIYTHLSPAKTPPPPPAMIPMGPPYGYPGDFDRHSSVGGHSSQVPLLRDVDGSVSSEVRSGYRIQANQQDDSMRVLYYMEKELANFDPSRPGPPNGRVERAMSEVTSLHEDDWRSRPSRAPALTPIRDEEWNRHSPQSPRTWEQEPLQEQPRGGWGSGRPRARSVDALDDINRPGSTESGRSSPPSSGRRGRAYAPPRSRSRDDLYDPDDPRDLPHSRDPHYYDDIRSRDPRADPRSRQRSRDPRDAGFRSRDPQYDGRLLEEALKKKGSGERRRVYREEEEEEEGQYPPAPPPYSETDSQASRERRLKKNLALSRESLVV

As to LDL (low density lipoprotein) (ligand), the fold enhancement of binding in the presence of oleate in test [1] is 5 fold; in test [2], 2 fold.

The values are drawn from patent US20020151498A1.
